The series deals with the molecule itself. Briefly: mass photometry; purified TANGO2.Flag; mass distribution; conditions not described.

The results in this text go back to article PMC11867700, “TANGO2 is an acyl-CoA binding protein” (The Journal of Cell Biology, 2025).

B1: TANGO2 isoform 1-Flag (TANGO2.Iso1-Flag), purified (natural protein, human, UniProt Q6ICL3-1 1-276, looked up)
chain: MCIIFFKFDPRPVSKNAYRLILAANRDEFYSRPSKLADFWGNNNEILSGLDMEEGKEGGTWLGISTRGKLAALTNYLQPQLDWQARGRGELVTHFLTTDVDSLSYLKKVSMEGHLYNGFNLIAADLSTAKGDVICYYGNRGEPDPIVLTPGTYGLSNALLETPWRKLCFGKQLFLEAVERSQALPKDVLIASLLDVLNNEEAQLPDPAIEDQGGEYVQPMLSKYAAVCVRCPGYGTRTNTIILVDADGHVTFTERSMMDKDLSHWETRTYEFTLQS
notes: TANGO2 isoform 1, human, UniProt Q6ICL3-1; C-terminal in-frame fusion with the Flag peptide; also called TANGO2.Flag; purified TANGO2
In the case of B1, the binding result was “binds”.
